Measured values from article PMC2566886 (Nucleic Acids Research, 2008).

Biological target: the molecule itself
Assay: cross-linking

B1: Xenopus Nudt16 protein (X29) (enzyme, Xenopus laevis)
chain: MAESRSPDRGAKEDKPRPRNISREESLQLEGYKHACHALLHAPSQAKLFDRVPIRRVLLMMMRFDGRLGFPGGFVDTRDISLEEGLKRELEEELGPALATVEVTEDDYRSSQVREHPQKCVTHFYIKELKLEEIERIEAEAVNAKDHGLEVMGLIRVPLYTLRDRVGGLPAFLCNNFIGNSKSQLLYALRSLKLLREDQIQEVLKASHRLQY
stoichiometry N: ≥ 2
